According to the Human Domainome abundance scans (Beltran et al. 2025):
± gives the uncertainty stated by the source.

B1: Chromodomain-helicase-DNA-binding protein 5, residues 411 to 463; numbered along this chain, Q8TDI0 (parent)
chain: EEDDHMEFCRVCKDGGELLCCDACPSSYHLHCLNPPLPEIPNGEWLCPRCTCP
B2: Pyruvate dehydrogenase protein X component, mitochondrial, residues 181 to 227; numbered along this chain, O00330 (parent)
chain: RFRLSPAARNILEKHSLDASQGTATGPRGIFTKEDALKLVQLKQTGK

Variants of: B1
Experiment: abundance fitness (aPCA) (normalised: wild type 0, dead -1); higher = more abundant; growth selection in yeast, the domain comes from the species named
Settings: Homo sapiens

Abundance fitness, by site and new letter:
T51: H -0.228 ± 0.13 | F -0.142 ± 0.12 | R -0.035 ± 0.053
E2: K -0.157 ± 0.14 | Q -0.224 ± 0.14
G43: D -0.238 ± 0.11
C47: A -0.542 ± 0.077
N34: Q 0.021 ± 0.064 | I -0.132 ± 0.15 | T -0.189 ± 0.099
K13: T -0.311 ± 0.046
M6: C -0.069 ± 0.065
N42: P 0.16 ± 0.075
C52: A 0.067 ± 0.054 | F -0.141 ± 0.098
R10: A -0.219 ± 0.075
H31: N 0.121 ± 0.069 | I -0.044 ± 0.13 | D 0.072 ± 0.12
P38: S -0.13 ± 0.08
D3: G 0.105 ± 0.045
P53: S -0.153 ± 0.13
V11: G 0.046 ± 0.053
C32: V -0.963 ± 0.093
C21: R -1.09 ± 0.099 | P -0.483 ± 0.086
S27: A 0.07 ± 0.073 | M -0.052 ± 0.078
E44: H 0.056 ± 0.073 | Y -0.232 ± 0.081 | K 0.102 ± 0.071
L37: M -0.262 ± 0.098 | F -0.21 ± 0.12
H5: I -0.02 ± 0.067 | Y -0.058 ± 0.048 | Q -0.028 ± 0.049 | V -0.5 ± 0.041
C12: A -0.963 ± 0.061 | K -0.684 ± 0.12 | T -0.581 ± 0.099
D4: K 0.184 ± 0.047
P25: N -0.025 ± 0.079
W45: C -0.604 ± 0.1
H29: W -1.25 ± 0.26 | L -0.528 ± 0.076 | S -0.825 ± 0.14
L19: F 0.001 ± 0.058 | T -0.169 ± 0.11 | Y 0.099 ± 0.14 | R -0.078 ± 0.06 | W -0.288 ± 0.089
E17: Y -0.272 ± 0.059 | I -0.102 ± 0.045
P48: V -0.24 ± 0.075
P36: M -0.026 ± 0.082
C20: H -0.065 ± 0.094 | W -0.029 ± 0.069 | G 0.116 ± 0.052 | V 0.007 ± 0.052
D22: L -0.026 ± 0.044
P41: T 0.002 ± 0.073
F8: P -0.261 ± 0.081
L33: R -0.6 ± 0.053 | T -0.198 ± 0.049 | M -0.235 ± 0.095

Variants of: B2
Experiment: as above
Settings: Homo sapiens

Abundance fitness of substitutions, site by site:
K47: C -0.003 ± 0.25 | Q 0.539 ± 0.26 | R -0.293 ± 0.35 | H -0.156 ± 0.48 | M 0.312 ± 0.15 | N -0.751 ± 0.36 | E 0.284 ± 0.2 | D -0.532 ± 0.43 | Y 0.095 ± 0.15 | T -0.774 ± 0.48
T45: G 0.166 ± 0.057 | R -0.023 ± 0.058 | S 0.167 ± 0.052 | K -0.379 ± 0.11 | C -0.217 ± 0.085 | W -0.276 ± 0.075 | V -0.156 ± 0.053 | Q -0.209 ± 0.14 | N 0.096 ± 0.12 | F -0.147 ± 0.25 | L -0.146 ± 0.09 | I -0.428 ± 0.15 | P -0.333 ± 0.11 | M -0.211 ± 0.088 | H -0.189 ± 0.13 | D 0.07 ± 0.11
K43: Y -0.193 ± 0.091 | C -0.267 ± 0.15 | P -0.477 ± 0.13 | W -0.608 ± 0.15 | S 0.013 ± 0.064 | G -0.141 ± 0.054 | R -0.245 ± 0.045 | L -0.575 ± 0.059 | Q -0.057 ± 0.05 | E -0.395 ± 0.1 | A -0.083 ± 0.084 | H 0.299 ± 0.14 | D -0.227 ± 0.14 | V -0.28 ± 0.057 | F -0.305 ± 0.084
T32: A -0.462 ± 0.087 | W -0.716 ± 0.071 | P -0.492 ± 0.13 | E -0.447 ± 0.057 | R -0.698 ± 0.094 | N -0.733 ± 0.18 | I -0.965 ± 0.21 | G -0.482 ± 0.052 | M -0.947 ± 0.12 | Q -0.376 ± 0.13 | K -0.517 ± 0.15 | Y -1.12 ± 0.2 | C -0.519 ± 0.12 | V -0.637 ± 0.053 | H -0.389 ± 0.045 | D -0.612 ± 0.17 | L -0.553 ± 0.097
L37: W -0.293 ± 0.054 | M -0.183 ± 0.061 | K -0.088 ± 0.08 | H -0.544 ± 0.17 | T -0.072 ± 0.099 | E 0.278 ± 0.09 | D 0.035 ± 0.14 | R -0.377 ± 0.07 | G -0.233 ± 0.05 | Q -0.545 ± 0.14 | C -0.388 ± 0.079 | V -0.165 ± 0.068 | A -0.55 ± 0.1 | I -0.369 ± 0.12 | S -0.286 ± 0.078 | P -0.541 ± 0.071 | F -0.402 ± 0.094 | Y -0.383 ± 0.21
D35: N -0.926 ± 0.39 | W -0.814 ± 0.083 | E -0.439 ± 0.2 | I -0.956 ± 0.47 | Q -0.818 ± 0.1 | V -1 ± 0.1 | L -0.76 ± 0.12 | C -1.06 ± 0.19 | R -0.847 ± 0.093 | G -0.565 ± 0.079 | A -0.637 ± 0.051 | T -0.936 ± 0.21 | F -1.25 ± 0.46 | Y -0.865 ± 0.19 | K -0.828 ± 0.14
F31: M -0.38 ± 0.082 | T -0.171 ± 0.093 | R -0.455 ± 0.063 | S -0.306 ± 0.068 | N -0.084 ± 0.11 | Q -0.424 ± 0.12 | W -0.675 ± 0.14 | Y -0.335 ± 0.071 | V -0.349 ± 0.065 | P -0.206 ± 0.076
K38: A -0.105 ± 0.065 | N -0.258 ± 0.13 | W -0.951 ± 0.12 | S 0.007 ± 0.085 | D -0.577 ± 0.23 | M -0.251 ± 0.088 | C -0.453 ± 0.087 | L -0.775 ± 0.058 | F -0.781 ± 0.11 | I -0.604 ± 0.079 | G -0.354 ± 0.089 | P -0.33 ± 0.071 | V -0.391 ± 0.089 | T -0.643 ± 0.097 | H -0.149 ± 0.12 | R 0.042 ± 0.076
G46: V -0.207 ± 0.069 | Y 0.219 ± 0.18 | A -0.323 ± 0.095 | H 0.38 ± 0.14 | Q 0.249 ± 0.14 | S -0.05 ± 0.06 | F -0.464 ± 0.31 | C 0.022 ± 0.093 | R -0.105 ± 0.05 | E 0.122 ± 0.12 | P -0.469 ± 0.13 | W -0.553 ± 0.17 | M -0.042 ± 0.12 | I -0.689 ± 0.2 | T -0.037 ± 0.059 | D -0.343 ± 0.15 | L -0.268 ± 0.071 | K -0.375 ± 0.13
V40: K -0.099 ± 0.11 | F -0.592 ± 0.16 | S -0.381 ± 0.088 | A -0.338 ± 0.073 | H -1.01 ± 0.4 | Q -0.252 ± 0.12 | D -0.195 ± 0.081 | G -0.545 ± 0.059 | T -0.706 ± 0.14 | R -0.439 ± 0.067 | P -0.314 ± 0.12 | Y -0.295 ± 0.087 | I -0.411 ± 0.082 | C -0.183 ± 0.21
A36: K -0.563 ± 0.17 | E -0.317 ± 0.093 | M -0.41 ± 0.073 | G -0.513 ± 0.051 | V -0.823 ± 0.057 | L -0.756 ± 0.093 | P -0.908 ± 0.31 | D -0.262 ± 0.088 | N -0.428 ± 0.18 | S -0.512 ± 0.12 | I -0.947 ± 0.078 | C -0.339 ± 0.11 | R -0.723 ± 0.089 | T -0.669 ± 0.15 | H -0.562 ± 0.14 | W -1.02 ± 0.12
Q44: V -0.133 ± 0.044 | L -0.131 ± 0.053 | T -0.451 ± 0.13 | M -0.389 ± 0.12 | K 0.114 ± 0.094 | F -0.328 ± 0.049 | N -0.337 ± 0.14 | P -0.516 ± 0.093 | S -0.068 ± 0.082 | A -0.008 ± 0.045 | W -0.641 ± 0.14 | Y -0.028 ± 0.11 | I 0.039 ± 0.093 | H -0.152 ± 0.095 | R -0.14 ± 0.061 | D -0.262 ± 0.12 | E 0.038 ± 0.076
K33: V -0.291 ± 0.054 | Y -0.401 ± 0.14 | M -0.325 ± 0.067 | E 0.079 ± 0.044 | I 0.047 ± 0.16 | A -0.113 ± 0.057 | F -0.623 ± 0.073 | P -0.607 ± 0.15 | G -0.331 ± 0.05 | L -0.379 ± 0.062 | H -0.039 ± 0.15 | Q 0.036 ± 0.098 | N -0.462 ± 0.18 | S -0.305 ± 0.084 | T -0.04 ± 0.084 | C -0.417 ± 0.059 | W -0.762 ± 0.16 | D -0.279 ± 0.12
L42: D 0.085 ± 0.051 | R -0.094 ± 0.044 | F -0.535 ± 0.14 | V -0.001 ± 0.045 | I -0.291 ± 0.17 | S -0.247 ± 0.081 | Y -0.058 ± 0.14 | E 0.096 ± 0.079 | C 0.013 ± 0.062 | T -0.198 ± 0.076 | M -0.09 ± 0.1 | P -0.347 ± 0.1 | K 0.221 ± 0.12 | H -0.618 ± 0.28 | Q 0.115 ± 0.064 | W -0.251 ± 0.068 | G -0.183 ± 0.057 | A 0.131 ± 0.052 | N -0.288 ± 0.24
E34: R -0.329 ± 0.05 | C -0.437 ± 0.17 | P -0.714 ± 0.13 | I -0.615 ± 0.29 | G -0.323 ± 0.045 | N -0.811 ± 0.27 | F -0.388 ± 0.1 | H -0.095 ± 0.082 | S -0.178 ± 0.056 | V -0.515 ± 0.051 | M -0.536 ± 0.096 | L -0.443 ± 0.061 | W -0.334 ± 0.12 | T -0.299 ± 0.13 | Q 0.054 ± 0.08 | D -0.058 ± 0.047 | A -0.155 ± 0.065
L39: E -0.28 ± 0.047 | M -0.089 ± 0.1 | D -0.121 ± 0.1 | R -0.484 ± 0.12 | T -0.505 ± 0.16 | S -0.127 ± 0.065 | P -0.348 ± 0.086 | H -0.271 ± 0.066 | K -0.545 ± 0.21 | W -0.731 ± 0.098 | Y -0.874 ± 0.17 | A -0.319 ± 0.067 | C -0.694 ± 0.14 | F -0.746 ± 0.18 | G -0.222 ± 0.062 | V -0.315 ± 0.074 | Q -0.619 ± 0.21 | N 0.065 ± 0.094
Q41: N -0.159 ± 0.12 | H -0.452 ± 0.18 | V -0.287 ± 0.078 | L -0.353 ± 0.058 | R 0.214 ± 0.061 | Y -0.639 ± 0.17 | C -0.855 ± 0.19 | G -0.227 ± 0.075 | D -0.085 ± 0.1 | P -0.2 ± 0.11 | M -0.181 ± 0.066 | W -0.395 ± 0.056 | S 0.2 ± 0.056 | E 0.193 ± 0.07 | I -0.648 ± 0.12
